What was measured:
CD24^−Sca-1^−AEC2s = assay: 3D Matrigel organoid culture, colony-forming efficiency (CFE) of mouse AEC2s; format: cell-based
Method: Flow-sorted mouse CD24^−Sca-1^−AEC2s or human HTII-280^+AEC2s were cultured in Matrigel/medium (1:1) mixture in the presence of MLg2908 lung fibroblast cells (Barkauskas et al., 2013; Chen et al., 2012). 100 μl Matrigel/medium mix containing 3×10^3 type 2 cells and 2×10^5 MLg2908 cells were plated into each 0.4-μm Transwell insert of a 24-well plate. 400 μl of medium was added in the lower chambers. Medium was described previously (Chen et al., 2012). Matrigel was from BD Biosciences (catalog 354230). Fresh medium was changed every other day. Cultures were maintained in a humidified 37° C. and 5% CO2 incubator. Colonies were visualized with a Zeiss Axiovert40 inverted fluorescent microscope (Carl Zeiss AG, Oberkochen, Germany). The number of colonies with a diameter of ≥50 μm from each insert was counted, and the colony-forming efficiency (CFE) was determined by the number of colonies in each culture as a percentage of the number of input epithelial cells at day 12 after plating.
For culture with IL-6 protein or anti-IL-6, sorted type 2 cells were pretreated with IL-6 protein or anti-IL-6 at room temperature for 30 minutes. Type 2 cells were then mixed with fibroblasts in the Matrigel/medium mixture and plated into Transwell inserts. The same concentration of IL-6 protein or IL-6 antibody was added into the Matrigel/medium mix and into the medium placed in the lower chambers.
Healon GV was purchased from Abbott Medical Optics (Abbot Park, Ill.). Pep-1 was synthesized by Sigma-Genosys and dissolved in DMSO to form a 100 μg/μl stock solution as described previously (Jiang et al., 2005; Mummert et al., 2000). For 3D matrigel culture, sorted type 2 cells were pretreated with Healon (200 μg/ml) or pep-1 (125 μg/ml) at room temperature for 30 minutes. Higher concentrations of Healon (400 μg/ml, 600 μg/ml, and 800 μg/ml) were used for 3D matrigel culture of IPF AEC2s. Cells were then mixed with fibroblasts in Matrigel/medium mix and plated into Transwell inserts. The same concentrations of Healon or Pep-1 were added into the Matrigel/medium mix and medium that were placed in the lower chambers.
The cell-permeable STAT3 inhibitor S3I-201 was purchased from Santa Cruz Biotechnology (Dallas, Tex.) and dissolved in DMSO to form stock solution of 10 mg/ml (MW 365.36). The dose for treating type 2 cells in colony-formation assays was 50 μM and 100 μM. The same amounts of DMSO were added into the control wells. Flow-sorted type 2 cells were pretreated with the STAT3 inhibitor at 50 μM or 100 μM concentrations, and with IL-6 protein (100 ng/ml), at room temperature for 30 minutes. Cells were then mixed with fibroblasts in Matrigel/medium mix and plated into Transwell inserts. […]

human HTII-280^+AEC2s = assay: 3D matrigel culture, colony-forming efficiency (CFE) of human AEC2s; format: cell-based; conditions: AEC2s sorted from diseased (IPF) lung; rIL-6 200 ng/ml vs medium without exogenous IL-6; FIG. 13H
Method: (§1) Recombinant mouse IL-6 protein (Catalog 406-ML/CF, R&D Systems) was supplied in 50 mM sodium acetate and 1 mM EDTA and was diluted (1:5 or more depending on the stock concentration) in sterile PBS, and 2 μg per mouse in 50 μl was injected intramuscularly at 1 day before and at 1 day and 3 days after bleomycin instillation. Control buffer was made of the same volume of 50 mM sodium acetate and 1 mM EDTA solution and PBS. Mouse anti-IL-6 (MAB406, Clone #MP5-20F3, R&D Systems) or control IgG was reconstituted with sterile PBS. 250 μg per mouse in 250 μl sterile PBS was injected intraperitoneally to mice at 1 day before and at 1 day and 3 days after bleomycin instillation. Recombinant human IL-6 protein (Catalog 206-IL-010, R&D Systems) was reconstituted with sterile PBS containing 0.1% BSA. 200 ng/ml was used for organoid culture of human AEC2s.
Single-cell suspensions from human lungs were isolated as described (Barkauskas et al., 2013). The procedures of staining the cells for flow cytometry and data analysis were described previously (Barkauskas et al., 2013; Liang et al., 2012). […] Flow cytometry was performed using a FACSCanto II flow cytometer and FACSAria III sorter (BD Immunocytometry Systems, San Jose, Calif.) and analyzed using Flow Jo 9.6.4 software (Tree Star, Ashland, Oreg.). […]

[1] = test system: bleomycin-induced lung injury; assay: Bleomycin lung injury model with rIL-6 or anti-IL-6 administration; format: in vivo, mouse
Text: Mice. Tlr4^−/− and Tlr2^−/− mice were obtained (Takeuchi et al., 1999; Kawai et al., 1999), Has2^flox/+ mice were generated using the Cre-loxP system (Li et al., 2011; Matsumoto et al., 2009), and SFTPC-Cre mice, SFTPC-CreER mice, SFTPC-GFP mice, and Rosa-Tomato^flox/flox mice were generated (Barkauskas et al., 2013; Chen et al., 2012; Eblaghie et al., 2006). All mice were backcrossed on the C57Bl/6J background for more than six generations. […] Has2^flox/flox homozygous mice were crossed with SFTPC-Cre^+ mice to generate SFTPC-Cre^+;Has2^flox/flox mice. Rosa-Tomato^flox/flox mice were crossed with SFTPC-CreER mice to generate SFTPC-CreER^+;Rosa-Tomato^flox/flox mice. Animals were randomly assigned to treatment groups, and they were age- and sex-matched. 8- to 12-week-old mice of both sexes (male:female ratio ˜1:1) were used in the bleomycin lung injury model. Animals for experiments were selected by genotype, and no blinding was performed.
Bleomycin instillation and BAL procedures were described previously (Dong et al., 2015; Lovgren et al., 2011). Under anesthesia, the trachea was surgically exposed. 1.25-5 U/kg bleomycin (Hospira, Lake Forest, Ill.) in 25 μl PBS was instilled into the mouse trachea with a 25-G needle inserted between the cartilaginous rings of the trachea. Control animals received saline alone. The tracheostomy site was sutured, and the animals were allowed to recover. Mice were euthanized at different time points, and lung tissue and BAL fluid were collected for experiments. 0.8-ml aliquots of PBS were used for lavage. Cell-free BAL fluid was stored in a −80° C. freezer for cytokine measurement.
Collagen contents in mouse lungs were measured using a conventional hydroxyproline method (Jiang et al., 2004). Lung tissues were vacuum-dried and hydrolyzed with 6 N hydrochloride acid at 120° C. overnight. Hydroxyproline content was expressed as ‘μg per lung’, unless specified otherwise. The ability of the assay to completely hydrolyze and recover hydroxyproline from collagen was confirmed using samples containing known amounts of purified collagen.
as §1
Single-cell suspensions from mouse lungs were isolated as described (Chen et al., 2012). Mouse lungs were perfused with 5 ml PBS and digested with elastase (4 U/ml; Worthington Biochemical Corporation) and DNase I (100 U/ml; Sigma) to obtain single-cell suspensions for flow cytometry. Primary antibodies to CD31, CD34, CD45, Sca-1, and CD24, and secondary antibody anti-streptavidin were all from eBioscience (San Diego, Calif.). Mouse anti-EpCAM (G8.8, catalog 118215) and anti-Ki67 (catalog 652403) were from BioLegend (San Diego, Calif.). 7-AAD was from BD Biosciences (San Diego, Calif.).
The procedures of staining the cells for flow cytometry and data analysis were described previously (Chen et al., 2012; Liang et al., 2012). In brief, cells were resuspended in Hank's balanced saline solution supplemented with 2% FBS (FBS), 10 mM HEPES, 0.1 mM EDTA, 100 IU/ml penicillin, 100 μg/ml streptomycin (HBSS+ buffer). […]

[2] = bleomycin-treated Tlr4^−/− mice, rIL-6 vs control buffer, FIG. 10G

| Molecule | rIL6-promoted colony formation of CD24^−Sca-1^−AEC2s (CD24^−Sca-1^−AEC2s; STAT3 inhibitor 50 μM or 100 μM with IL-6 protein 100 ng/ml, FIG. 11C) | CFEs of CD24^−Sca-1^−AEC2s (CD24^−Sca-1^−AEC2s; AEC2s from bleomycin-treated SFTPC-Cre;Has2^flox/flox mice, rIL-6 100 ng/ml, FIG. 10F) | CFEs of CD24^−Sca-1^−AEC2s (CD24^−Sca-1^−AEC2s; AEC2s from bleomycin-treated Tlr4^−/− mice, rIL-6 100 ng/ml, FIG. 10E) | CFEs of CD24^−Sca-1^−AEC2s (CD24^−Sca-1^−AEC2s; AEC2s from bleomycin-treated WT mice, dose-dependent, vs control IgG or medium, FIGS. 10C-D) | CFEs of HTII-280^+AEC2s (human HTII-280^+AEC2s) | hydroxyproline content in the lungs ([1]; Tlr4^−/− mice, bleomycin and rIL-6 vs bleomycin alone, FIG. 10H) | AEC2 apoptosis ([1]; bleomycin day 7 Tlr4^−/− mice, rIL-6 vs buffer, FIG. 11D) | inflammatory cell infiltration (BAL cell counts) ([1]; bleomycin day 7 Tlr4^−/− mice, rIL-6 vs buffer, FIG. 11E) | hydroxyproline content in the lungs ([1]; bleomycin-injured SFTPC-Cre;Has2^flox/flox mice, rIL-6 vs buffer, FIG. 10I) | survival ([1]; bleomycin-injured Tlr4^−/− mice, rIL-6 vs buffer, 21 days, FIG. 11F) | survival / mortality ([1]; bleomycin-injured WT mice, anti-IL-6 250 μg per mouse i.p. vs control IgG (FIG. 11G), rIL-6 vs bleomycin alone (data not shown)) | hydroxyproline levels ([1]; bleomycin-injured WT mice, anti-IL-6 vs control IgG, rIL-6 vs bleomycin alone, data not shown) | recovery of CD24^−Sca-1^−AEC2s ([1]; bleomycin-treated Tlr4^−/− mice, rIL-6 2 μg per mouse i.m. day −1, 1, 3, vs control buffer, FIG. 10G) | Ki67 staining of CD24^−Sca-1^−AEC2s [1, 2] | concentration of total BALF proteins [1, 2] |
| --- | --- | --- | --- | --- | --- | --- | --- | --- | --- | --- | --- | --- | --- | --- | --- |
| Cc1ccc(S(=O)(=O)OCC(=O)Nc2ccc(C(=O)O)c(O)c2)cc1 [S3I-201, reference compound] | abolished |  |  |  |  |  |  |  |  |  |  |  |  |  |  |
| rIL-6: Recombinant mouse IL-6 protein (Catalog 406-ML/CF, R&D Systems), used for mouse AEC2s and in mice (protein, UniProt P08505 25-211, looked up) Interleukin-6: FPTSQVRRGDFTEDTTPNRPVYTTSQVGGLITHVLWEIVEMRKELCNGNSDCMNNDDALAENNLKLPEIQRNDGCYQTGYNQEICLLKISSGLLEYHSYLEYMKNNLKDNKKDKARVLQRDTETLIHIFNQEVKDLHKIVLPTPISNALLTDKLESQKEWLRTKTIQFILKSLEEFLKVTLRSTRQT |  | promoted | promoted | increased | markedly increased | lower | did not affect | did not affect | lower hydroxyproline content | increased survival | did not alter | did not alter | more recovery | greater Ki67 staining | lower concentration |
